Measured values published in PMC5300068 (2017).

Molecular target: the molecule itself
Assay: AUC

B1: MASP-2 (protein)
chain: TPLGPKWPEPVFGRLASPGFPGEYANDQERRWTLTAPPGYRLRLYFTHFDLELSHLCEYDFVKLSSGAKVLATLCGQESTDTERAPGKDTFYSLGSSLDITFRSDYSNEKPFTGFEAFYAAEDIDECQVAPGEAPTCDHHCHNHLGGFYCSCRAGYVLHRNKRTCSALCSGQVFTQRSGELSSPEYPRPYPKLSSCTYSISLEEGFSVILDFVESFDVETHPETLCPYDFLKIQTDREEHGPFCGKTLPHRIETKSNTVTITFVTDESGDHTGWKIHYTSTAQPCPYPMAPPNGHVSPVQAKYILKDSFSIFCETGYELLQGHLPLKSFTAVCQKDGSWDRPMPACSIVDCGPPDDLPSGRVEYITGPGVTTYKAVIQYSCEETFYTMKVNDGKYVCEADGFWTSSKGEKSLPVCEPVCGLSARTTGGRIYGGQKAKPGDFPWQVLILGGTTAAGALLYDNWVLTAAHAVYEQKHDASALDIRMGTLKRLSPHYTQAWSEAVFIHEGYTHDAGFDNDIALIKLNNKVVINSNITPICLPRKEAESFMRTDDIGTASGWGLTQRGFLARNLMYVDIPIVDHQKCTAAYEKPPYPRGSVTANMLCAGLESGGKDSCRGDSGGALVFLDSETERWFVGGIVSWGSMNCGEAGQYGVYTKVINYIPWIENIISDF
- Kd: < 10 nM

B2: MASP-1 (protein)
chain: HTVELNNMFGQIQSPGYPDSYPSDSEVTWNITVPDGFRIKLYFMHFNLESSYLCEYDYVKVETEDQVLATFCGRETTDTEQTPGQEVVLSPGSFMSITFRSDFSNEERFTGFDAHYMAVDVDECKEREDEELSCDHYCHNYIGGYYCSCRFGYILHTDNRTCRVECSDNLFTQRTGVITSPDFPNPYPKSSECLYTIELEEGFMVNLQFEDIFDIEDHPEVPCPYDYIKIKVGPKVLGPFCGEKAPEPISTQSHSVLILFHSDNSGENRGWRLSYRAAGNECPELQPPVHGKIEPSQAKYFFKDQVLVSCDTGYKVLKDNVEMDTFQIECLKDGTWSNKIPTCKIVDCRAPGELEHGLITFSTRNNLTTYKSEIKYSCQEPYYKMLNNNTGIYTCSAQGVWMNKVLGRSLPTCLPVCGLPKFSRKLMARIFNGRPAQKGTTPWIAMLSHLNGQPFCGGSLLGSSWIVTAAHCLHQSLDPEDPTLRDSDLLSPSDFKIILGKHWRLRSDENEQHLGVKHTTLHPQYDPNTFENDVALVELLESPVLNAFVMPICLPEGPQQEGAMVIVSGWGKQFLQRFPETLMEIEIPIVDHSTCQKAYAPLKKKVTRDMICAGEKEGGKDACAGDSGGPMVTLNRERGQWYLVGTVSWGDDCGKKDRYGVYSYIHHNKDWIQRVTGVRN
- Kd: < 10 nM
